Series [1] has as its target TAT-SRF (UniProt P11831).
Series [2] deals with TAT-SRF245A/254A (UniProt P11831).
The target in series [3] is T1, serum response factor (SRF) (UniProt P11831).
T1 sequence: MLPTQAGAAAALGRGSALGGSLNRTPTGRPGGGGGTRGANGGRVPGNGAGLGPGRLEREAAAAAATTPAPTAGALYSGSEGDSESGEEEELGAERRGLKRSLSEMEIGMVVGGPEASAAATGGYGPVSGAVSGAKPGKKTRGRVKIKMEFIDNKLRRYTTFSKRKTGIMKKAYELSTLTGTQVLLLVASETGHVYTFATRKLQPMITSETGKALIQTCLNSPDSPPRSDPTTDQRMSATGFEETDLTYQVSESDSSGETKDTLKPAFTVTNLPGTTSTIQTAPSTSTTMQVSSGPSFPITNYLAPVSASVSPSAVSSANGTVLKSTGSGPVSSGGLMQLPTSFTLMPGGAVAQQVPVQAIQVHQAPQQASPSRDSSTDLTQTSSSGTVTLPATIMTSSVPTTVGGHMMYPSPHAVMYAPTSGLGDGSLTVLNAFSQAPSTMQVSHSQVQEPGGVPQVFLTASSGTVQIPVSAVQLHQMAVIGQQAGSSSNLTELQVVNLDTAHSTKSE

For series [4], the target named is endogenous ROCK1 of neonatal rat cardiomyocytes (UniProt Q63644).
Chain of endogenous ROCK1 of neonatal rat cardiomyocytes (Q63644 2-1369): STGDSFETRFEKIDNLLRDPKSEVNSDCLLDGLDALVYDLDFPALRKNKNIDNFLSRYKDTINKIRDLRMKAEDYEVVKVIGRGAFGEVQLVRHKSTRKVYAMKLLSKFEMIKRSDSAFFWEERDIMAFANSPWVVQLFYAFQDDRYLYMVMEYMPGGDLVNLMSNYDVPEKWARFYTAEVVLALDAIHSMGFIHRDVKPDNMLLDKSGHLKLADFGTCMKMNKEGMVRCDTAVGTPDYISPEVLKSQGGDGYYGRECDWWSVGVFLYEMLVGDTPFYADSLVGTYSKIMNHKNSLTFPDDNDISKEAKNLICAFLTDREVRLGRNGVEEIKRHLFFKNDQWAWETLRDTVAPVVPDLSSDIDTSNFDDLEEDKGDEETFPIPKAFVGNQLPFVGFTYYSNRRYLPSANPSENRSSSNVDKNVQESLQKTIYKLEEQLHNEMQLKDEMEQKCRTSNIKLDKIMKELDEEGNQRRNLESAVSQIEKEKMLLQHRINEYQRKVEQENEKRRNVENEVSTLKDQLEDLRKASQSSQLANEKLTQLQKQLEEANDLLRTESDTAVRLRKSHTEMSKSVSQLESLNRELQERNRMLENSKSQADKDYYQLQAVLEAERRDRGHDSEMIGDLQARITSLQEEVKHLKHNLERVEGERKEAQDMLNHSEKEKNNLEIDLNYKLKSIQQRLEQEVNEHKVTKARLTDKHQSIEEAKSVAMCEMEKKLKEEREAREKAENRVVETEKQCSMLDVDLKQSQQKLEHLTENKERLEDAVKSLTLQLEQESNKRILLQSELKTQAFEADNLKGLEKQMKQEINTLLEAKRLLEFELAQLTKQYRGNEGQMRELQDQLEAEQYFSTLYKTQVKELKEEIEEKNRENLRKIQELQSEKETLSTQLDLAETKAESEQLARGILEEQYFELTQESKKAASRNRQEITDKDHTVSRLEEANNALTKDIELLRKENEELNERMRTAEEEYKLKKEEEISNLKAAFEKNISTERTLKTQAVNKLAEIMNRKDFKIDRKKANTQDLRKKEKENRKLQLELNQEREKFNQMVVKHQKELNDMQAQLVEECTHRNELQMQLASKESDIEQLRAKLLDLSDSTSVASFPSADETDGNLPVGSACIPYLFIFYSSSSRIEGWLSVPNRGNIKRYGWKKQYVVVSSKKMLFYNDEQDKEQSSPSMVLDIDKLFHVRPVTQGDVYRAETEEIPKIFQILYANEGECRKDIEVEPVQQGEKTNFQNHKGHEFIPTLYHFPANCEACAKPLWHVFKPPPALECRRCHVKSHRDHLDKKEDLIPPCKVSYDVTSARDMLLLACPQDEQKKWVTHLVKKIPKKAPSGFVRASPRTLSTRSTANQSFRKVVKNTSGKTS

For the substance “active caspase 3 (recombinant caspase 3)”, the results for the “in vitro cleavage by recombinant caspase 3” value in series [1] and in series [2] were “only TAT-SRF was cleaved by caspase 3” and “SRF245A/254A mutant was resistant to caspase 3 cleavage”, respectively. For the same substance, the “in vitro cleavage of SRF” value in series [3] is “Activated caspase 3 is able to cleave SRF in vitro”.
In the case of conditional caspase 3 (iCasp3), the “130 kDa ROCK1 cleavage fragment by Western blot of infected cardiomyocytes” value in series [4] is “The 130 kDa cleavage fragment of ROCK1 was detected in cardiomyocytes infected with Ad-G/iCasp3 and treated with CID”.
